Assay results: publication PMC12416549 (2024)

T1: TNFR1 (Homo sapiens, UniProt P19438)
T1 chain: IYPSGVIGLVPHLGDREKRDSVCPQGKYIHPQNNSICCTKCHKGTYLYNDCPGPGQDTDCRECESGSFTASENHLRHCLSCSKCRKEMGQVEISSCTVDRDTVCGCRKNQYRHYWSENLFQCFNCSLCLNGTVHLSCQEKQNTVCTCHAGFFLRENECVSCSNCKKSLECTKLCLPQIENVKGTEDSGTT

B1: K68W (designed binder)
chain: SMEEEVEKAAKEYEKKKKEAIEKHLEKLKAKDKEAAERFLKELEEAAKEYAKDEAKTMSEEEAKRRAWKYKEKVLLSELSEEEQKEIKEAEEKLVRTILKYVEEAAK
B2: M2I (designed binder)
chain: SIEEEVEKAAKEYEKKKKEAIEKHLEKLKAKDKEAAERFLKELEEAAKEYAKDEAKTMSEEEAKRRAKKYKEKVLLSELSEEEQKEIKEAEEKLVRTILKYVEEAAK
B3: K93L (designed binder)
chain: SMEEEVEKAAKEYEKKKKEAIEKHLEKLKAKDKEAAERFLKELEEAAKEYAKDEAKTMSEEEAKRRAKKYKEKVLLSELSEEEQKEIKEAEELLVRTILKYVEEAAK
B4: S77H (designed binder)
chain: SMEEEVEKAAKEYEKKKKEAIEKHLEKLKAKDKEAAERFLKELEEAAKEYAKDEAKTMSEEEAKRRAKKYKEKVLLHELSEEEQKEIKEAEEKLVRTILKYVEEAAK
B5: K52L (designed binder)
chain: SMEEEVEKAAKEYEKKKKEAIEKHLEKLKAKDKEAAERFLKELEEAAKEYALDEAKTMSEEEAKRRAKKYKEKVLLSELSEEEQKEIKEAEEKLVRTILKYVEEAAK
B6: A55W (designed binder)
chain: SMEEEVEKAAKEYEKKKKEAIEKHLEKLKAKDKEAAERFLKELEEAAKEYAKDEWKTMSEEEAKRRAKKYKEKVLLSELSEEEQKEIKEAEEKLVRTILKYVEEAAK
B7: S80E (designed binder)
chain: SMEEEVEKAAKEYEKKKKEAIEKHLEKLKAKDKEAAERFLKELEEAAKEYAKDEAKTMSEEEAKRRAKKYKEKVLLSELEEEEQKEIKEAEEKLVRTILKYVEEAAK
B8: L28W (designed binder)
chain: SMEEEVEKAAKEYEKKKKEAIEKHLEKWKAKDKEAAERFLKELEEAAKEYAKDEAKTMSEEEAKRRAKKYKEKVLLSELSEEEQKEIKEAEEKLVRTILKYVEEAAK
B9: M58E (designed binder)
chain: SMEEEVEKAAKEYEKKKKEAIEKHLEKLKAKDKEAAERFLKELEEAAKEYAKDEAKTESEEEAKRRAKKYKEKVLLSELSEEEQKEIKEAEEKLVRTILKYVEEAAK
B10: A105Q (designed binder)
chain: SMEEEVEKAAKEYEKKKKEAIEKHLEKLKAKDKEAAERFLKELEEAAKEYAKDEAKTMSEEEAKRRAKKYKEKVLLSELSEEEQKEIKEAEEKLVRTILKYVEEQAK
B11: L40F (designed binder)
chain: SMEEEVEKAAKEYEKKKKEAIEKHLEKLKAKDKEAAERFFKELEEAAKEYAKDEAKTMSEEEAKRRAKKYKEKVLLSELSEEEQKEIKEAEEKLVRTILKYVEEAAK
B12: R65E (designed binder)
chain: SMEEEVEKAAKEYEKKKKEAIEKHLEKLKAKDKEAAERFLKELEEAAKEYAKDEAKTMSEEEAKERAKKYKEKVLLSELSEEEQKEIKEAEEKLVRTILKYVEEAAK
B13: K11W (designed binder)
chain: SMEEEVEKAAWEYEKKKKEAIEKHLEKLKAKDKEAAERFLKELEEAAKEYAKDEAKTMSEEEAKRRAKKYKEKVLLSELSEEEQKEIKEAEEKLVRTILKYVEEAAK
B14: K41N (designed binder)
chain: SMEEEVEKAAKEYEKKKKEAIEKHLEKLKAKDKEAAERFLNELEEAAKEYAKDEAKTMSEEEAKRRAKKYKEKVLLSELSEEEQKEIKEAEEKLVRTILKYVEEAAK
B15: E92W (designed binder)
chain: SMEEEVEKAAKEYEKKKKEAIEKHLEKLKAKDKEAAERFLKELEEAAKEYAKDEAKTMSEEEAKRRAKKYKEKVLLSELSEEEQKEIKEAEWKLVRTILKYVEEAAK
B16: Y101S (designed binder)
chain: SMEEEVEKAAKEYEKKKKEAIEKHLEKLKAKDKEAAERFLKELEEAAKEYAKDEAKTMSEEEAKRRAKKYKEKVLLSELSEEEQKEIKEAEEKLVRTILKSVEEAAK
B17: Q84T (designed binder)
chain: SMEEEVEKAAKEYEKKKKEAIEKHLEKLKAKDKEAAERFLKELEEAAKEYAKDEAKTMSEEEAKRRAKKYKEKVLLSELSEEETKEIKEAEEKLVRTILKYVEEAAK
B18: H24K (designed binder)
chain: SMEEEVEKAAKEYEKKKKEAIEKKLEKLKAKDKEAAERFLKELEEAAKEYAKDEAKTMSEEEAKRRAKKYKEKVLLSELSEEEQKEIKEAEEKLVRTILKYVEEAAK
B19: E34I (designed binder)
chain: SMEEEVEKAAKEYEKKKKEAIEKHLEKLKAKDKIAAERFLKELEEAAKEYAKDEAKTMSEEEAKRRAKKYKEKVLLSELSEEEQKEIKEAEEKLVRTILKYVEEAAK
B20: K100H (designed binder)
chain: SMEEEVEKAAKEYEKKKKEAIEKHLEKLKAKDKEAAERFLKELEEAAKEYAKDEAKTMSEEEAKRRAKKYKEKVLLSELSEEEQKEIKEAEEKLVRTILHYVEEAAK
B21: E103D (designed binder)
chain: SMEEEVEKAAKEYEKKKKEAIEKHLEKLKAKDKEAAERFLKELEEAAKEYAKDEAKTMSEEEAKRRAKKYKEKVLLSELSEEEQKEIKEAEEKLVRTILKYVDEAAK
B22: E92G (designed binder)
chain: SMEEEVEKAAKEYEKKKKEAIEKHLEKLKAKDKEAAERFLKELEEAAKEYAKDEAKTMSEEEAKRRAKKYKEKVLLSELSEEEQKEIKEAEGKLVRTILKYVEEAAK
B23: K16W (designed binder)
chain: SMEEEVEKAAKEYEKWKKEAIEKHLEKLKAKDKEAAERFLKELEEAAKEYAKDEAKTMSEEEAKRRAKKYKEKVLLSELSEEEQKEIKEAEEKLVRTILKYVEEAAK
B24: D32H (designed binder)
chain: SMEEEVEKAAKEYEKKKKEAIEKHLEKLKAKHKEAAERFLKELEEAAKEYAKDEAKTMSEEEAKRRAKKYKEKVLLSELSEEEQKEIKEAEEKLVRTILKYVEEAAK
B25: E22W (designed binder)
chain: SMEEEVEKAAKEYEKKKKEAIWKHLEKLKAKDKEAAERFLKELEEAAKEYAKDEAKTMSEEEAKRRAKKYKEKVLLSELSEEEQKEIKEAEEKLVRTILKYVEEAAK

Target: T1, TNFR1
Assay: yeast display SC50
B1 was tested, and the “apparent Kd (screen)” value was 2.73 nM.
B2 was tested, and the “apparent Kd (screen)” value was 1.27 nM.
For B3, the “apparent Kd (screen)” value was 1.05 nM.
With B4 the “apparent Kd (screen)” value was 0.49 nM.
For B5, the “apparent Kd (screen)” value was 0.869 nM.
For B6, the “apparent Kd (screen)” value was 20.2 nM.
For B7, the “apparent Kd (screen)” value was 5.84 nM.
In the case of B8, the “apparent Kd (screen)” value is reported as 0.49 nM.
B9 was tested, and the “apparent Kd (screen)” value was 8.56 nM.
B10 was tested, and the “apparent Kd (screen)” value was 0.593 nM.
In the case of B11, the “apparent Kd (screen)” value is reported as 0.869 nM.
With B12 the “apparent Kd (screen)” value was 1.54 nM.
For B13, the “apparent Kd (screen)” value was 0.79 nM.
In the case of B14, the “apparent Kd (screen)” value is reported as 0.49 nM.
For B15, the “apparent Kd (screen)” value was 10.4 nM.
In the case of B16, the “apparent Kd (screen)” value is reported as 0.956 nM.
For B17, the “apparent Kd (screen)” value was 11.4 nM.
In the case of B18, the “apparent Kd (screen)” value is reported as 2.73 nM.
For B19, the “apparent Kd (screen)” value was 0.446 nM.
B20 was tested, and the “apparent Kd (screen)” value was 1.16 nM.
B21 was tested, and the “apparent Kd (screen)” value was 0.79 nM.
With B22 the “apparent Kd (screen)” value was 1.54 nM.
For B23, the “apparent Kd (screen)” value was 0.49 nM.
B24 was tested, and the “apparent Kd (screen)” value was 0.718 nM.
B25 was tested, and the “apparent Kd (screen)” value was 0.593 nM.
